The source of these data is US20090291504A1.

Where only a bound is given, the exact number is not on record here.

For data set [1], the system named is Cre fragment β1 (reported in Casanova et al., 2003).
In data set [2] the target is cCre (C-terminal half of Cre fused at its N-terminus to the C-peptide leucine zipper) (bacteriophage P1) (UniProt P06956). Briefly: cell-based or functional assay.
Data set [3] deals with nlcCre (cCre with an extra SV40 large T antigen NLS) (Simian Virus 40; bacteriophage P1) (UniProt P06956). Briefly: cell-based or functional assay.
Data set [4] concerns the target Cre fragments alpha5 + beta1 (Casanova et al. 2003) (bacteriophage P1?) (UniProt P06956+P06956). Briefly: cell_activity. The settings on record: HEK293 GFP reporter.
Data set [5] has as its target T1, C-terminal Cre fragment identical to that in cCre, without leucine zipper peptide, P06956.
T1 chain: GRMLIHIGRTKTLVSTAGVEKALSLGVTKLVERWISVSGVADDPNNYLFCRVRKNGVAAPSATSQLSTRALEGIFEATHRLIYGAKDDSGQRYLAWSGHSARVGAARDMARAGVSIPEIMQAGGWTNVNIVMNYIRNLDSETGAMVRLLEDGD

Consider “Cre fragment α5 (reported in Casanova et al., 2003)”, for which, in data set [1], the “Cre activity recovered from fragments lacking protein interaction motifs (tissue culture)” value is given as “less than 2% Cre activity was recovered”.

Consider “nCre (N-terminal half of Cre with an N-terminal SV40 large T antigen NLS, fused at its C-terminus to the N-peptide leucine zipper) (from UniProt P06956 1-190) (enzyme)”, for which the recombinase activity of intact Cre molecule reconstituted (GFP/mCherry reporter, flow cytometry, co-transfected HEK293 cells) in data set [2] stood at 12.1%. This molecule also registered a Cre activity recovered (GFP/mCherry reporter, flow cytometry, co-transfected HEK293 cells) in data set [3] of 27.2%.

In the case of “ATAACTTCGTATAATGTATGCTATACGAAGTTAT (double strand) [loxP]”, the Cre recombinase activity relative to intact Cre in data set [4] was < 2%.

B1: N-terminal Cre fragment identical to that in nCre, without leucine zipper peptide (protein)
chain: MSNLLTVHQNLPALPVDATSDEVRKNLMDMFRDRQAFSEHTWKMLLSVCRSWAAWCKLNNRKWFPAEPEDVRDYLLYLQARGLAVKTIQQHLGQLNMLHRRSGLPRPSDSNAVSLVMRRIRKENVDAGERAKQALAFERTDFDQVRSLMENSDRCQDIRNLAFLGIAYNTLLRIAEIARIRVKDISRTDG
Regarding B1, the “Cre activity generated by co-expression of fragments without interaction motifs (tissue culture)” value in data set [5] is on record as “less than 0.5% of Cre activity”.
